# Data reported in paper PMC6601556.
# How the values were obtained:
# Assay in all cases: SPR
# [1] = target: 337_1_C08 variant VH K5T8 / VL 6
# [2] = target: 337_1_C08 variant VH K5E3 / VL 61
# [3] = target: 337_1_C08 variant VH H5E2 / VL 2
# [4] = target: 337_1_C08 variant VH H5E2 / VL 23
# [5] = target: 337_1_C08 variant VH K5T8 / VL 9
substance,measurement,setting,value
Monomeric human PD-1 rCD4 antigen (from UniProt Q15116 25-288) (receptor),Kd,[1],9 nM
same,Kd,[2],4.8 nM
same,Kd,[3],30 nM
same,Kd,[4],54 nM
same,Kd,[5],2.9 nM
